# Results published in patent publication US20250152729A1 (CANCER RESEARCH TECHNOLOGY, published 2025).
# T1: cynomolgus SEMA4A expressed on expi293 cells (UniProt ID G7NV79) (cynomolgus, UniProt Q9H3S1 33-761 (human entry))
# T1 construct: Transient transfection in expi293 cells; also called cyno SEMA4A
# T1 chain: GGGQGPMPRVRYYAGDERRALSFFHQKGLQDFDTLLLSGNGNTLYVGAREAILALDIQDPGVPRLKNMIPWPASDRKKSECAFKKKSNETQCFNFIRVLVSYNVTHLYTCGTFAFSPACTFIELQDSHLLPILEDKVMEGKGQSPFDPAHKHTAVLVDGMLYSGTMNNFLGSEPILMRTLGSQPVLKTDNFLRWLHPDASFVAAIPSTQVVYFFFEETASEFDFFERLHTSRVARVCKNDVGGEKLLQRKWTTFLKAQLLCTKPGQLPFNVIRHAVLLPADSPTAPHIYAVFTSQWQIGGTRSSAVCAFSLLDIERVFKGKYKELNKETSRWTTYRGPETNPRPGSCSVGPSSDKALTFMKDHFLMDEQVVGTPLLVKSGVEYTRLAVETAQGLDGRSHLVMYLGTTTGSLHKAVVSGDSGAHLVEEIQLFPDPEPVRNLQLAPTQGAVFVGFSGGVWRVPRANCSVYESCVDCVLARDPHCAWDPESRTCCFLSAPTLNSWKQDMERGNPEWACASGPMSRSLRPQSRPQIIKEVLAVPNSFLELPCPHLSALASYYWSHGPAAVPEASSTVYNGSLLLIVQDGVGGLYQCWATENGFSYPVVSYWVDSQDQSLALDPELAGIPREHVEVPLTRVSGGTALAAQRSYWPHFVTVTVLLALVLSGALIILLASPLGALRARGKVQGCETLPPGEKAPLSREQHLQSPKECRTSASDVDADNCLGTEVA
# T2: human SEMA4B expressed on expi293 cells (human, UniProt Q9NPR2 44-837)
# T2 construct: whole, on cells
# T2 sequence (looked up): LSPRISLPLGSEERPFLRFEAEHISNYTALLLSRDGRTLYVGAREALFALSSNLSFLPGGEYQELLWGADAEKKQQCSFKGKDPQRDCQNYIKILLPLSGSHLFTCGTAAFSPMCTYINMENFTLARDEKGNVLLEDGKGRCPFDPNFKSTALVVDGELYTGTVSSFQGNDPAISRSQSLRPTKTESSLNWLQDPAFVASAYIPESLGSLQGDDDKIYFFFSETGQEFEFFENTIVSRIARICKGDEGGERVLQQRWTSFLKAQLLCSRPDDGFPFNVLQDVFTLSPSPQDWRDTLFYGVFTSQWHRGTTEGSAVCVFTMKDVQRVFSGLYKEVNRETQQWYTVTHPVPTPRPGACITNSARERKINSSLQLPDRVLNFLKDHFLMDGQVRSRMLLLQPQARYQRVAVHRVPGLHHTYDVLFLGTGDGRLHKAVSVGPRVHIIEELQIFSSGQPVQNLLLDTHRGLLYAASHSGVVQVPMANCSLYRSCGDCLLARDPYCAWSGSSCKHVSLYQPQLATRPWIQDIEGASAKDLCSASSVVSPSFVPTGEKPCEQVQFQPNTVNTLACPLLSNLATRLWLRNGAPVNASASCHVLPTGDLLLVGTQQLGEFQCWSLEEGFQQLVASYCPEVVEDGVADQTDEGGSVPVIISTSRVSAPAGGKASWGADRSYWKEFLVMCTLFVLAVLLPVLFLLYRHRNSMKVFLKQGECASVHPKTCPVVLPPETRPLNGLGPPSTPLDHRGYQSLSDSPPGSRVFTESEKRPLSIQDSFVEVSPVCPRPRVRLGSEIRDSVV
# B1: mouse 5E3 expressed as human IgG1 Alya (antibody, V domains shown)
# VH: QVQLQQPGAELVMPGASVKMSCKASGYTFTDYWMHWVKQRPGQGLEWIGAIDTSDSYTSYNQKFKGKATLTVDESSSTAYMQLSSLTSEDSAVYYCARDYGNFYYYAMDYWGQGTSVTVSS
# VL: QAVVTQESALTTSPGETVTLTCRSSTGAVTTSNYANWVQEKPDHLFTGLIGGTNNRAPGVPARFSGSLIGDKAALTITGAQTEDEAIYFCALWYSNHWVFGGGTKLTVL
# notes: Mouse variable domains on human IgG1 Alya constant (pEU1.22; 239iCys and S442C, EU numbering); purified, unconjugated; also called 5E3 IgG1 Alya
# B2: 5Hg2-5Lg6 human Alya IgG1 (antibody, V domains shown)
# VH: QVQLVQSGAEVKKPGASVKVSCKASGYTFTDYWMHWVRQAPGQRLEWMGAIDTSDSYTSYNQKFKGRVTITRDTSASTAYMELSSLRSEDTAVYYCARDYGNFYYYAMDYWGQGTLVTVSS
# VL: SYELTQPSSVSVSPGQTARITCRSSTGAVTTSNYANWFQQKPGQAPVLVIYGTNNRAPGIPERFSGSSSGTTVTLTISGAQVEDEADYYCALWYSNHWVFGGGTKLTVL
# notes: Humanised 5E3; human IgG1 Alya constant (239iCys, S442C, EU), lambda light chain; purified, unconjugated
# B3: 5Hg5-5Lg2 human Alya IgG1 (antibody, V domains shown)
# VH: EVQLVQSGAEVKKPGESLRISCKGSGYSFTDYWMHWVRQMPGKGLEWMGAIDTSDSYTSYNQKFKGQVTISADKSISTAYLQWSSLKASDTAMYYCARDYGNFYYYAMDYWGQGTLVTVSS
# VL: QAVVTQEPSLTVSPGGTVTLTCRSSTGAVTTSNYANWFQQKPGQAPRTLIYGTNNRAPWTPARFSGSLLGGKAALTLLGAQPEDEAEYYCALWYSNHWVFGGGTKLTVL
# notes: Humanised 5E3; human IgG1 Alya constant (239iCys, S442C, EU), lambda light chain; purified, unconjugated; also called 5HE5/5Lg2
# Experiments:
# [1] = molecular target: T1, cynomolgus SEMA4A expressed on expi293 …; assay: Mirrorball direct binding, dilution series on expi293 cells transiently transfected with cynomolgus SEMA4A, anti-human Alexa Fluor 647
# Text: (§1) Hits from the primary screening were re-formatted into the human Alya IgG1 vector and re-expressed and purified as described in section 4.1. In addition, a single clone was identified that contained an Asparagine deamidation motif (Asn Gly) within its VHCDR2. This potential sequence liability was de-risked by synthesising de novo two clonal variant VH genes (Asn Ala and Gln Gly) and cloning these sequences into the human Alya IgG1 expression vector. To determine the specificity profile of each purified human Alya IgG1, a dilution series was tested for binding to human SEMA4A, mouse SEMA4A, cyno SEMA4A, human SEMA4B and mock transfected cells (transient transfections set up in expi 293 cells.) The five assays employed methods described in section 2.3, using the appropriate cells and substituting the un-purified scFv periplasmic preparation with the recombinant human Alya IgG1 dilution series. Data was analysed as Count x median mean intensity (x FLU).
# [2] = molecular target: T2, human SEMA4B expressed on expi293 cells; assay: Mirrorball direct binding, dilution series on expi293 cells transiently transfected with human SEMA4B, anti-human Alexa Fluor 647
# [3] = molecular target: T1, cynomolgus SEMA4A expressed on expi293 …; assay: Mirrorball direct binding, dilution series on expi293 cells transiently transfected with cyno SEMA4A, anti-human Alexa Fluor 647
# Text: as §1
Binder,binding result [1],binding result [2],binding result [3]
B1,binds,no binding (tested: log (M) -8 (1e-8 M)),
B2,,,binds
B3,,,binds
